Series [1] concerns NC[C@H]1O[C@H](O[C@H]2[C@H](O)[C@@H](O[C@H]3O[C@H](CO)[C@@H](O)[C@H](N)[C@H]3O)[C@H](N)C[C@@H]2N)[C@H](O)[C@@H](O)[C@@H]1O. The experiment in a line: purified protein.
Series [2] concerns the molecule itself. The experiment in a line: SEC; untreated protein, 100 ug, Superose 6 Increase 10/300 GL, 10 mM Tris-Cl pH 8.0, 150 mM NaCl, 1 mM EDTA, 0.5 mM beta-ME, 25°C, 0.5 ml/min; calibrated with molecular weight markers.
Series [3] concerns the molecule itself. As to the kind of experiment: SDS-PAGE of unboiled sample; 10 ug unboiled protein on 8% SDS-PAGE, loading dye with 1% SDS, 0.125 M Tris pH 6.8, 40% glycerol; Coomassie stain.
Where [4] appears, read: fixed acetyl-CoA (500 μM in the standard assay), 2 mM DTNB, 0.5 μM enzyme, 20 mM phosphate pH 8.0, 25°C.

Broadly, the Km is the concentration of substrate that gives half-maximal velocity. The Vmax is the rate approached at saturating substrate. A word on the kcat: it is the maximal rate divided by the concentration of active sites. As usually defined, the kcat/Km is the turnover number divided by the Michaelis constant. Take “MsEis (Mycolicibacterium smegmatis MC2 155)”: in series [1] (setting [4]), the Michaelis-Menten constant (Km) is 21 ± 0.1 µM, the maximal velocity (Vmax) amounted to 4.8 µM/min, the kcat turned out to be 0.027 ± 0.005 s⁻¹ and the specificity constant (kcat/Km) stood at 1270 ± 22 M⁻¹ s⁻¹.

With “RvEis (Mycobacterium tuberculosis H37Rv)”, in series [1] (pH 8.0, 25.0 °C), the Michaelis-Menten constant (Km) is 11 ± 1.6 µM, the Vmax was 4 µM/min and the kcat/Km turned out to be 2140 M⁻¹ s⁻¹.

B1: M. tuberculosis Eis (Rv2416c, Enhanced Intracellular Survival protein) (enzyme)
chain: MTVTLCSPTEDDWPGMFLLAAASFTDFIGPESATAWRTLVPTDGAVVVRDGAGPGSEVVGMALYMDLRLTVPGEVVLPTAGLSFVAVAPTHRRRGLLRAMCAELHRRIADSGYPVAALHASEGGIYGRFGYGPATTLHELTVDRRFARFHADAPGGGLGGSSVRLVRPTEHRGEFEAIYERWRQQVPGGLLRPQVLWDELLAECKAAPGGDRESFALLHPDGYALYRVDRTDLKLARVSELRAVTADAHCALWRALIGLDSMERISIITHPQDPLPHLLTDTRLARTTWRQDGLWLRIMNVPAALEARGYAHEVGEFSTVLEVSDGGRFALKIGDGRARCTPTDAAAEIEMDRDVLGSLYLGAHRASTLAAANRLRTKDSQLLRRLDAAFASDVPVQTAFEF
notes: also called RvEis; not shown: His tag, N-terminal, kept
The term stoichiometry N denotes a count of units in the complex or per binding partner. Consider B1, for which the “stoichiometry N” value in series [2] stood at 6; in series [3], 3.

B2: M. smegmatis Eis (MSMEG_3513) protein (enzyme, UniProt A0QY29 1-402, looked up)
chain: MITPRTLHTITDDDWTRIALLARFAFGDIEPEQTQAAWRSMVPEDATVVVPDETDDAFVGQSLYLDMQLTVPGGEVLPVAGISFVAVAPTHRRRGVLRAMYTELHDRIARAGYPLAVLTASEGGIYGRFGYGVATIEQHVSVDRRLAQFHPAAPDPGGVRMLVPADHRDGLADIYDRWRRRTPGGLVRPDALWDDLLADRPESRRGGGELFAFGHQDGYALYRVDRGPDGRRSAHVVELTAVTADAHAALWRALLGLDLIDRVSIGTHPHDPLPYLLTDPRQAQVTASADDLWIRIMNVPAALEARRYQADLDVVLDVADGFRSDGGRFALQISGGRARCTTTDAPADIEIDLDVLGGLYLGAHRVDGFAAANRLRSKDSELLQQFGAAFAGDMPAELGYGF
notes: also called MsEis; Enhanced Intracellular Survival protein from M. smegmatis
In the case of B2, the “stoichiometry N” value in series [2] amounted to 6.

The values above are taken from PMC6433294, “Differential thermal stability, conformational stability and unfolding behavior of Eis proteins from Mycobacterium smegmatis and Mycobacterium tuberculosis” (PLoS ONE, 2019).
